System: MS2 coat protein
Assay: apparent KD of MS2 coat protein; higher = weaker reporter binding
Settings: Eterna round: R107
Procedure, shortened: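 On-chip transcription from Illumina sequencing clusters produced the designed RNA switches. These were titrated with SNAP-549-labelled MS2 coat protein (twofold steps, 0.7 or 1.5 nM to 3 µM) in 100 mM Tris-HCl pH 7.5, 80 mM KCl, 4 mM MgCl2, with or without constant ligand. The apparent KD given is the per-design median of normalised cluster binding-curve fits.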

[1] = input ligand: theophylline 20 uM
[2] = input ligand: theophylline 2 mM
[3] = input ligand: tryptophan 2.4 mM

| Sequence | apparent KD of MS2 coat protein (input ligand: arginine 13.2 mM) [nM] | apparent KD of MS2 coat protein (input ligand: none) [nM] | apparent KD of MS2 coat protein [1] [nM] | apparent KD of MS2 coat protein [2] [nM] | apparent KD of MS2 coat protein [3] [nM] |
| --- | --- | --- | --- | --- | --- |
| GGAUGCCACUAUGGAUAGCACGAUGCCGAUACCAGCUAGGAAACUAGCCCUUGGCAGCGGAACAUGAGGAUCACCCAUGUAUCCU [EThA NP+V+V2 #8] | 21.3 | 24.2 | 30.5 | 42.7 | 21.6 |
| GGAUGGAACUCGGCCGCCACUGGUGAUCCUAAUGUACAUGAGGAUCACCCAUGUACAUGAGAAGAUAGGACCGGGAGAUAACAUG [V5] | 23.5 | – | 31.2 | 29.4 | – |
| GGAUUCAACUCGGCCGCCACUGGUGAUCCUAAUGUACAUGAGGAUCACCCAUGUACAUGAGAAUACAGGACCGGGAGAUAAGCAA [Tryptophan B V2 (+4A)] | 20.1 | – | 26.5 | 24 | – |
| GGCACAUAGUCGGCCGCCACUACGUGGAGAUCGGAGUACAUGAGGAUCACCCAUGUAUGGAAGGGUAGGACCGGGACUAUGUGCC [Horalka] | 38.3 | 67.1 | 38.5 | 123 | 18.7 |
| GGCACAUAGUCGGCCGCCACUAGGGUGUAGUGGAAUAACAUGAGGAUCACCCAUGUAUUUGGGACUAGGACCGGGACUAUGUGCC [Leopard] | 27.2 | – | 40.4 | 30 | – |
| GGCACCAGGCGAAGGAGCGUGAAGACAUGAGGAUCACCCAUGUAGAGGCCCGGACAGGGUUCGCAGGUAGGUCGCGCCUGGUGCC [#1 Same State - Arginine B Attempt #9 (HarryS)] | 22.9 | 16.2 | 40.6 | 26.8 | 13.5 |
| GGCAGUCAUAGCAGGGCAAAUAUACUCGAAGGAGCGUCAUAGUAGGCAGGUAGGUCGCGAGACAUGAGGAUCACCCAUGUAGAGA [uuumullin] | 26.1 | 68.9 | 46 | 66 | 49.3 |
| GGCCAUGGAAACAUGGCGGCGGCAUAUGCGCGAGGACCGGUACGGCCGCCACUCGGGCAACAUGAGGAUCACCCAUGUUCCUCAU [ETA NP+V+V2 #24 +-Same Structure] | 67.4 | – | 356 | 388 | – |
| GGCCUAGCGAGCGCUCGCUAGGCCGCGGAUACCAGCGAGGUCCAUCGCCCUUGGCAGCCGAACAUGAGGAUCACCCAUGUCGGUA [#1 Same State - Theophylline A Attempt #15 (HarryS)] | 9.5 | 10.3 | 13.4 | 16.9 | 9.68 |
| GGCUAGGUCUCGGCCGCCACUGCUACAUGAGGAUCACCCAUGUACCUGGGCGGUCGCUCCCUCGGCAGGACCGGGAGACAUUCGU [Onarbeisan] | 9.2 | – | 13.8 | 12.5 | – |
| GGGCCCGGGCCCGCGCGGGCCCGGGCCCAACGAGGACCGGUACGGCCGCCACUCGAACGAGUGGGUACAUGAGGAUCACCCAUGU [Baa] | 38.6 | 30.7 | 55.9 | 48.6 | 33.4 |
| GGGCUUGUGGUGCGGCGUGUUCCGCUCCGUCGAGGACCGGUACGGCCGCCACUCGACAUGAGGAUCACCCAUGUGCGAGCGCGCG [#1 Exclusion - Tryptophan A Attempt #7 (HarryS)] | 11.4 | 17.3 | 16.1 | 15.4 | 25.1 |
| GGGUCAGGCGCGGCCGCCACUGCGGUGAUGUGACAUGAGGAUCACCCAUGUUGUCAUGUGGCACAUAGGACCGGGUGCCUGGCCC [#1 Exclusion - Tryptophan B Attempt #6 (HarryS)] | 28.3 | – | 50.2 | 33.8 | – |
| GGGUGCGGGAUAGAUACCAGUGCCUUAAAAUAGGCACAUGAGGAUCACCCAUGUACCGGGCGCCCUUGGCAGCUAGUACCAUCCA [Edanrele] | 93.9 | – | 190 | – | 147 |
| GGGUGUGAUCCGGAUACCAGUGAACAUGAGGAUCACCCAUGUGACCUGAGAUCGGCUCUUCACCCUUGGCAGCCGCGGUCGCAGG [Same State Theophylline B GF14] | 11.4 | 11.5 | 18.6 | 10.7 | 10 |
| GGUAUGUAUUCGGAAACGAAUGCAUACCAACGAGGACCGGUACGGCCGCCACUCGGCGGCGAUCAACAUGAGGAUCACCCAUGUA [Ex Tryptophan A 3] | 26.2 | – | 43.7 | 42.4 | – |
| GGUCUGUGGAGCGAUACCAGCUUGAGUGUACUGGCCAGGUACAUGAGGAUCACCCAUGUAAGCCCUUGGCAGCGCUCCAGAGACC [#1 Exclusion - Theophylline B Attempt #17 (HarryS)] | 7.42 | 9.29 | 13.8 | 31.5 | 10.9 |
| GGUGACUGCAUGUGGAAUUAAGGUAGGGAAGGAGCGCGGUAAGACGCAGGUAGGUCGCCCUACAUGAGGAUCACCCAUGUGGUGU [Beenmaer] | 114 | 121 | 135 | 500 | 36.5 |
| GGUGAUCCGUAUCACCGGAUCACCGGUGAUACCAGCAUCGAAAGAUGCCCUUGGCAGCACCAACAUGAGGAUCACCCAUGUAAUA [(M)'-(T)'-(M)''-(T1)-(T2)-(M1)-(M2)_Design6b] | 69.6 | – | 62.4 | – | 143 |

From the supplement of paper PMC9170038
